Sequences and labels used below:
B1: eCC6.30.9 (antibody, V domains shown)
VH: QVQLVQSGAEVKKPGSSVKVSCKASGGIFSIYAITWVRQAPGQGLEWMGAIIPIIGTANYAQKFQGRVTITADKSTSTAYMELSSLRSEDTAVYYCARDFRYCSSTRCYFNFDPWGQGTLVTVSS
VL: DIQMTQSPSSLSASVGDRVTITCRASQSISNYLNWYQQEAGKAPKLLIYTASSLQSGVPSRFSGSGSGTDFTLTISSLQPEDFATYYCQQSYSTPRTFGQGTKVDIK
notes: copies: 2 + 2
B2: eCC6.33.5 (antibody, V domains shown)
VH: QVQLVQSGAEVKKPGSSVKVSCKAVGGTFSSSAIYWVRQAPGQGLEWMGGIIPILDIANYAQKFQGRVTITADKSTSTAFMELSSLRSEDTAVYYCALRNQWDLVVYWGQGTLVTVSS
VL: EIVLTQSPGTLSLSPGERATLSCHASQSVSSSYLAWYQQKPGQAPRLLIYGAESRATGIPDRFSGSGSGTDFTLTISRLEPEDFAVYYCQHYGSSTWTFGQGTKLEIK
notes: copies: 2 + 2
B3: eCC6.33.6 (antibody, V domains shown)
VH: QVQLVQSGAEVKKPGSSVKVSCKAPGGTFSSSAISWVRQAPGQGLEWMGGIIPILDITTYAQKFQGRVTITADKSTSTAFMELSSLRSEDTAVYYCALRNQWDLLIYWGQGTLVTVSS
VL: EIVLTQSPGTLSLSPGERATLSCRASQSVSSHYLAWYQQKPGQAPRLLIYGASSRYTGIPDRFSGSGSGTDFTLTISRLEPEDFAVYYCQHYGSSHWTFGQGTKLEIK
notes: copies: 2 + 2
B4: eCC6.33.9 (antibody, V domains shown)
VH: QVQLVQSGAEVKKPGSSVKVSCKSSGGTFSSSAYSWVRQAPGQGLEWMGTIIPILDITNYAQKFQGRVTITADKSTSTAFMELSSLRSEDTAVYYCAQRNQWDLIVYWGQGTLVTVSS
VL: EIVLTQSPGTLSLSPGERATLSCRASQWVSSSYIAWYQQKPGQAPRLLIYGAESRATGIPDRFSGSGSGTDFTLTISRLEPEDFAVYYCQHYGSSSWTFGQGTKLEIK
notes: copies: 2 + 2

Among the data in paper PMC9367177 (iScience, 2022) are Kd, koff and kon values, retold here.

One may read the Kd as the concentration at which binding is half-saturated. A word on the koff: it is the first-order rate constant of dissociation. For orientation: kon means the second-order rate constant of association. A high value points to faster complex formation.

The assay has as its target T1, SARS-CoV-2 RBD (Wuhan-1) (SARS-CoV-2, Wuhan-1, UniProt P0DTC2).
T1 construct: source: Expi293, transfected, purified (Ni-NTA, SEC)
Briefly: SPR. The settings on record: both partners purified.
In turn, B1 gave a Kd of 0.0788 nM, a koff of 0.000202 s⁻¹ and a kon of 2.57e+06 M⁻¹ s⁻¹.

B2 returned a Kd of 17.3 nM, a koff of 0.00411 s⁻¹ and a kon of 237000 M⁻¹ s⁻¹.

As for B3, the affinity, expressed as Kd, was 13.3 nM; the off-rate (koff) was 0.00167 s⁻¹; the kon came out at 126000 M⁻¹ s⁻¹.

Molecule B4 had a dissociation constant (Kd) of 14.3 nM, a dissociation rate constant (koff) of 0.00218 s⁻¹ and a kon of 153000 M⁻¹ s⁻¹.
